From US8304206
Values joined by “and” are separate entries in the source; they are usually repeats but may differ in a detail not shown here. Equal values may be shown once.

Target: T1, SIRT1 Acetylated Peptide Substrate Ac-EE-K(biotin)-GQSTSSHSK(Ac)NleSTEG-K(5TMR)-EE-NH2 (SEQ ID NO: 34)
T1 chain: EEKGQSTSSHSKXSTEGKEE

B1: SIRT1 protein (human SIRT1 enzyme), expressed in E. coli BL21(DE3) as an N-terminal His-tag fusion protein (protein)
chain: MADEAALALQPGGSPSAAGADREAASSPAGEPLRKRPRRDGPGLERSPGEPGGAAPEREVPAAARGCPGAAAAALWREAEAEAAAAGGEQEAQATAAAGEGDNGPGLQGPSREPPLADNLYDEDDDDEGEEEEEAAAAAIGYRDNLLFGDEIITNGFHSCESDEEDRASHASSSDWTPRPRIGPYTFVQQHLMIGTDPRTILKDLLPETIPPPELDDMTLWQIVINILSEPPKRKKRKDINTIEDAVKLLQECKKIIVLTGAGVSVSCGIPDFRSRDGIYARLAVDFPDLPDPQAMFDIEYFRKDPRPFFKFAKEIYPGQFQPSLCHKFIALSDKEGKLLRNYTQNIDTLEQVAGIQRIIQCHGSFATASCLICKYKVDCEAVRGDIFNQVVPRCPRCPADEPLAIMKPEIVFFGENLPEQFHRAMKYDKDEVDLLIVIGSSLKVRPVALIPSSIPHEVPQILINREPLPHLHFDVELLGDCDVIINELCHRLGGEYAKLCCNPVKLSEITEKPPRTQKELAYLSELPPTPLHVSEDSSSPERTSPPDSSVIVTLLDQAAKSNDDLDVSESKGCMEEKPQEVQTSRNVESIAEQMENPDLKNVGSSTGEKNERTSVAGTVRKCWPNRVAKEQISRRLDGNQYLFLPPNRYIFHGAEVYSDSEDDVLSSSSCGSNSDSGTCQSPSLEEPMEDESEIEEFYNGLEDEPDVPERAGGAGFGTDGDDQEAINEAISVKQEVTDMNYPSNKS
With B1 the “Km (mass spectrometry deacetylase assay, replicate plate)” value was 11.2 µM and 11.9 µM, the Peptide Km (mean of 2 replicate plates, mass spectrometry assay) was 11.6 µM and the “deacetylation of the peptide (conversion to deacetylated product, mass spectrometry)” value was “SIRT1 deacetylation activity is dependent on both enzyme concentration and incubation time. Concentrations of enzyme between 5-20 nM result in product formation well above background”. For the same protein, the “decrease of Km for peptide substrate at 1.2 µM resveratrol (against DMSO vehicle)” value was 2%, the “decrease of Km for peptide substrate at 3.7 µM resveratrol (against DMSO vehicle)” value was 14% and the “decrease of Km for peptide substrate at 11 µM resveratrol (against DMSO vehicle)” value was 14%. The “decrease of Km for peptide substrate at 33 µM resveratrol (against DMSO vehicle)” value was 32% and the “decrease of Km for peptide substrate at 100 µM resveratrol (against DMSO vehicle)” value was 46%.
